For assay [1], the target named is 6His-PopZΔ172–177 (Caulobacter crescentus). Kind of assay: SEC-MALLS.
The target of assay [2] is 6His-PopZ P146A (Caulobacter crescentus). The experiment in a line: SEC-MALLS.

In general, stoichiometry N refers to a count of units in the complex or per binding partner. For the substance 6His-PopZΔ172–177 (domain or fragment), the stoichiometry N in assay [1] was found to be 6.
In assay [2], 6His-PopZ P146A (natural protein) registered a stoichiometry N of 3.

These data come from publication PMC3859194.
